B1: Cell adhesion molecule CEACAM1 (Homo sapiens), P13688 (parent)
chain: MGHLSAPLHRVRVPWQGLLLTASLLTFWNPPTTAQLTTESMPFNVAEGKEVLLLVHNLPQQLFGYSWYKGERVDGNRQIVGYAIGTQQATPGPANSGRETIYPNASLLIQNVTQNDTGFYTLQVIKSDLVNEEATGQFHVYPELPKPSISSNNSNPVEDKDAVAFTCEPETQDTTYLWWINNQSLPVSPRLQLSNGNRTLTLLSVTRNDTGPYECEIQNPVSANRSDPVTLNVTYGPDTPTISPSDTYYRPGANLSLSCYAASNPPAQYSWLINGTFQQSTQELFIPNITVNNSGSYTCHANNSVTGCNRTTVKTIIVTELSPVVAKPQIKASKTTVTGDKDSVNLTCSTNDTGISIRWFFKNQSLPSSERMKLSQGNTTLSINPVKREDAGTYWCEVFNPISKNQSDPIMLNVNYNALPQENGLSPGAIAGIVIGVVALVALIAVALACFLHFGKTGRASDQRDLTEHKPSVSNHTQDHSNDPPNKMNEVTYSTLNFEAQQPTQPTSASPSLTATEIIYSEVKKQ

The variants in the experiment derive from B1. As to conditions: with havr2_human HAVCR2, Q8TDQ0.
N76A: the “effect of a mutation on the interaction” value is “decreasing interaction strength”. The result for G81A reads “disrupting interaction strength”. The result for Q123H reads “decreasing interaction strength”. In the case of Q78L, the “effect of a mutation on the interaction” value is “decreasing interaction strength”.

For the origin of these results see IntAct's records for PubMed 25363763.
